{"source": "a protein production outcome set (Wang et al. 2014)", "data": [{"assay": "label from the status in PepcDB records", "values": [{"sequence": "DPREVAGGYVEKLCARYGLADVRVVQSPAMGRGLTGELGNAGAALLEEVVKDGMTVGVSWGDTMLAVSEHLRTLPLVDVKVVQLKGGHSHTARNTNDMVTLTRFSRALNAEMMMLPLPVILDSKEAKELVVKDRHIASMLNLGAHCDVAVFTVGAVKSESLLLNLGYLSPSEQARLMEHAVGDVCSRFYDAQGEVADPDIDARTVGISLADLKKRPVRVLVAGGLEKAPAIEAALRTGVATHVVIDHATAQRVVEMA", "protein production": "failed"}, {"sequence": "DQPLAVAGDELAIADQTIDALSAQVEKLRHQQDLSLKQAELLTELSRANLSDIDEIQGVIQKNLDQARALFGCERLVFYYHPRYQPEAMVVQALDLTTQGLIDSKDPHPWGQEDMPSQIVAINDTSGASISNPHRQWLEQHQVKASLTVPLHRDNYPLGLLMAHHCQRPHQWEMRERQFLQQLTEELQTTLDRANLIQERNESAQQAQILKELTLKISAAIN", "protein production": "failed"}, {"sequence": "DRTAILGGTFTPIHNGHRALLHKAFQTASHDGSGDGHVIVGLTSPELATETRSDPTHVKQLGAYDDRRSALASELDQLGEPYTATYEIVRLDDTQGPAATRADVDALVASPEAKAQRRAYELNQQRRESGLHPLEIHTPPFVVAEDGTRISSTRIRNGEIDVHGRLLD", "protein production": "failed"}, {"sequence": "DRVLVPVANPNTEDNLLQLAIILTKSASGTLLPLHILLEENNPISPDAKAKQSQLLSTAEMIAHAAVVNVTPIGRIDESIDKGIARVAEEKQASAIICGWKGYSTYEENLFGGVIDKIVQRSFIPVLVSR", "protein production": "failed"}, {"sequence": "DRVTLEVGKVIQQGRQSKGLTQKDLATKINEKPQVIADYESGRAIPNNQVLGKIERAIGLKLRGKDIGKPIEKGPRAK", "protein production": "not failed"}, {"sequence": "DSIVEGRTLNVAVSPASPPMLFKSADGKLQGIDLELFSSYCQSRHCKLNITEYAWDGMLGAVASGQADVAFSGISITDKRKKVIDFSEPYYINSFYLVSMANHKITLNNLNELNKYSIGYPRGMAYSDLIKNDLEPKGYYSLSKVKLYPTYNETMADLKNGNLDLAFIEEPVYFTFKNKKKMPIESRYVFKNVDQLGIAFKKGSPVRDDFNLWLKEQGPQKISGIVDSWMK", "protein production": "not failed"}, {"sequence": "DSRQRFKRQMVEQAAPWLLELSARTGLVTDLSSFDGESLEVLESAVPEVLRKRYPSNSRIVGQHASLFHSAMGKACLGALASAEVERLAEQEQVPAEARQQCLESQHLGFGQRTEGHWEYPVRLPFLIRAVALPLQAEGRVIGSIALHWPRDLACVEQVRNRHLWLLAETVERVQKDI", "protein production": "failed"}, {"sequence": "DTMCLAIPGQVIEIREENGLKMGTVDISGALTKACLEYVPEIAIGQYTIVHAGFALKIIDEKEAAESLKLWDELIKSG", "protein production": "not failed"}, {"sequence": "DYSQKLQNLISEQLVGCGFNEILNNSLTAASYYEGSETYKNENLVYLMNPLSNDLNVMRQTLLFGGLESIQHNANRKNADLKFFEFGNCYFYNAEKKNPEKVLAAYAEEYHLGLWVTGKRVSNSWAHPDENSSVYELKAYVLNIFTRLGLNFGNVVFGNLTNDIYSTAISVHTRGGKLLATFGIISKKIQKAFDIDNEVYYAEINWKELM", "protein production": "not failed"}, {"sequence": "EAGTGRPVLILHGGGGPATVAPLAGHLARTAHTLVPTHPGWNGTPRPDRFAGVDDIALAYLRHLQDRGLRDVLVVGSSLGGWIGAELAARDDLGIITGLVLIDAVGIQVDGEPVRDFFALDARGVAEYSYHDPDRFYVDPADIPAGQLAARQANMATMRALAGDPYMHDPTLRGRLARVPVPTLVLWGESDRIVTPAYGRAYTDAFPDARFEVIPKAGHLPQLEQPEATFAAIDAYLAR", "protein production": "failed"}, {"sequence": "EARGFTAEDFALSHPGGALGRKLLLRVNDIMHTGDEIPHVGLQATLRDALLEITRKNLGMTAICDDDMNIIGIFTDGDLRRVFDTGVDMRDASIADVMTRGGIRIRPGTLAVDALNLMQSRHITCVLVADGDHLLGVVHMHDLLRA", "protein production": "not failed"}, {"sequence": "ECPAVVAVVARGSEQNLQIRPARYSEESPWTSNGFEEKNFRSFFGRMEKHYRESTGESLMKDVYVMGLNNIEYPASLPLSSEGSSAIELGTSISSGRDNVISAIDRFESATGCTPKYLLAGYSQGVLIVDGYEEELIARDQYLGTLHIANPAQQVDDPTLVGHEVTTGGLASSVEPVEDNPFKVSYCLPGDIVCDRSFEQFSAAGSSIAAAQLSTGNIRPGRVHVQYFVTTQPWDEQIFDEVASWIEAA", "protein production": "failed"}, {"sequence": "EDDYYYPSVKLEFVTVKAGTDGSIQTLIPDNGEALTVSKDRTGSAISPNTSRRVMSNYETLSNGHTATAVIYSLQSLVTPTPKPADDPTYRDGLKHDPVDVVSIWLGRGYLNMILNLKVNGGKQHVFGIVEDLSEFETNGTVNMLLYHDANGDEEYYNRRAYLSVPLDKYADAENPGQKITIKFKYYTYDKDGTAIESGKYCNPGFEYVPDKN", "protein production": "not failed"}, {"sequence": "EDRNFVYLKRQVPMDVADKIKQMALPGIHQQPESRRYYPEGEVTAHIVGFNNVEDQGQEGVELTFNQQLSGQPGSRRVIKDRLGRVIEDVQAVTLPVDGRDLRLSID", "protein production": "failed"}, {"sequence": "EELQALVDNIPAAIYHLDVSGQATIRFRPPAFLKTLVSEHAGTTRLNTLSMIHHDDRHMLSNAYSKLREAKHSLTLVYRIVTPEGKLHWIEDHMRSSFSDDGLFSGIDGILCEVT", "protein production": "not failed"}, {"sequence": "EGLDYLTAPNPPSIREELCTASHDTITVHWISDDEFSISSYELQYTIFTGQANFISLYNSVDSWMIVPNIKQNHYTVHGLQSGTRYIFIVKAINQAGSRNSEPTRLKTNSQPFK", "protein production": "not failed"}, {"sequence": "EHIVPSNQQQIVRVLRTPGNNLHEVETAQGQRFLVSMPSKYRKNIWIKRGDFLIVDPIEEGEKVKAEISFVLCKDHVRSLQKEGFWPEAFSEVAEKHN", "protein production": "not failed"}, {"sequence": "EIHHRKPHGPEAALENVDAKIAKLMGEGYAFEEVKRALEIAQNNVEVARSILREFAFPPPVSPRLNL", "protein production": "failed"}, {"sequence": "EKAVLIGEKEADITFVTWGSQKGPILDVIEDLKEEGISANLLYLKMFSPFPTEFVKNVLSSANLVIDVESNYTAQAAQMIKLYTGIDIKNKILKYNGRHMTEDEILKSAKEILNK", "protein production": "not failed"}, {"sequence": "EKKEGHFSALPSLPVGSHAKVSSPQPRGPRYAEGTFISDYSIAMDKIHQQDFVNWLLAQKGKKNDWKHNITQREARALELASQANRKEEEAVEPQSSPAKNPSDEDLLRDLLIQELLACLLDQTNLCRLRSR", "protein production": "failed"}, {"sequence": "ELCNALADKISLKDRFGFSLYIALFDKVSSLGSGSDHVMDAISQCEQYAKEQGAQERNAPWRLFFRKEVFTPWHSPSEDNVATNLIYQQVVRGVKFGEYRCEKEDDLAELASQQYFVDYGSEMILERLLNLVPTYIPDREITPLKTLEKWAQLAIAAHKKGIYAQRRTDAQKVKEDVVSYARFKWPLLFSRFYEAYKFSGPSLPKNDVIVAVNWTGVYFVDEQEQVLLELSFPEIMAVSSSRECRVWLSLGCSDLGCAAPHSGWAGLTPAGPCSPCWSCRGAKTTAPSFTLATIKGDEYTFTSSNAEDIRDLVVTFLEGLRKRSKYVVALQDNPNPAGEESGFLSFAKGDLIILDHDTGEQVMNSGWANGINERTKQRGDFPTDCVYVMPTVTMPPREIVALVTMTPDQRQDVVRLLQLRTAEPEVRAKPYTLEEFSYDYFRPPPKHTLSRVMVSKARGKDRLWSHTREPLKQA", "protein production": "failed"}, {"sequence": "ELEHQISGTSKEALLDDIRSLIDSASYTYIRQREMKGLGHAILTGRELVGDEPFAVVLADDLCVNEEQGVLAQMVELYKQFRCSIVAVQEVPETETHKYGVIAGEMIKDDIFRIDNMVEKPEPGTAPSNLAIIGRYILTPDIFELIENTEPGKGGEIQITDALMQQAQSGCVIAYKFKGQRFDCGSVEGYIEATNYCYENLYKKASSAELAKTPTVKVSEPA", "protein production": "failed"}, {"sequence": "ELLKSGKAKDRFEGEENAPVTIVEYASLTCVHCAHFYNDVLPQIRKKYIKTGKVKLIFRDFAFDSRATAGFMLARCAPEDRYFPLIEVLFQKQSEWVWARDAVTPLKKIGLMAGFTDESFNACLKNQSILDEVNASFERGKELGVNATPTFFINGNKYEGAMSVEAFFSVIDSFLKN", "protein production": "not failed"}, {"sequence": "ELQAGFDKQEYMETLKINYKVHIALDKWAANTSVADPQDFDFVYRSPVVAFDNIWDLWKHKNKSVALISVQGSIQTEASFLANLYAAMIPAKGELQLDKDFKFTYQLADNPHAAVHVGWFVAMAYLSKTVVSKIDSCYNAGIKDFILTGHSQGGGITFLLNSYLENLKMQGRLPADIRFKTYCSAGPKPGNLFYAYEYEHMTAGGWAYNVVNTADWVPDVPFSVQTVTDFTAVNPFHGAKKAIRKQRFPANLALKHMYNKMSKPSERAQKNYQKYLGRMVSNAVKKQIPNFNAPEYYNSNYYVRTGNTIVLFPDEAYYKIYSNDPEDPNIWRHHLP", "protein production": "failed"}, {"sequence": "ELQRRKLLQENILNSIPLPIHIKDVEDDFRYVFCNEESMRMFGTHEGETVCSVLDSEQAERMQKTDLEVFTTGKPYFGVERIILKDGRSYDTIVRKNIIYDGTKRLLLNIRWD", "protein production": "failed"}, {"sequence": "ELQVIQPEKSVSVAAGESATLRCAMTSLIPVGPIMWFRGAGAGRELIYNQKEGHFPRVTTVSELTKRNNLDFSISISNITPADAGTYYCVKFRKGSPDDVEFKSGAGTELSVRAKPSAPVVSG", "protein production": "not failed"}, {"sequence": "ELSERQRAEQKLLEVNQLQKGIFDVANYMIISTDRRGIISTFNRTAEEILGYTAAELIGQQTPLIFHDQEEMASEAVQLSQQLQQTIRPNSIDMFAIPAIQWGVYEREWTYITKTGDRLPVYVSITALRDDQGKVDGLVGV", "protein production": "failed"}, {"sequence": "ELTAQHVMTPRVRVSALQSSATAEDVVNLTRATGLSRFPVYRDRIDEIVGMVHLKDALAIPSRDRLRTPVGRIAQPPLLVPETLPVQPLLARLRSEQPIAVVVDEYGGTAGVVTLEDIVEELVGEVRDEHDGQDLPELAVAPPEDGRPAWDADGSCRVDILQRIGLDV", "protein production": "not failed"}, {"sequence": "ELVVKRGEIFGVVGPTGSGKSNLISDIEQLAQGDTPSNRKILVNGNVPDTEMRRDPRKRRIAQLSQNMNFLADMTVEEFLIMHAKSRGMNSEGIVDKVIKLANNLTGEPIEKDYNLTILSGGQSRSLMVADVAVISDSPIVLIDEIENAGIKKHEALELLAGCGKIVMVITHDPVLALMTTRRVVMRNGGMNEIIETTE", "protein production": "failed"}, {"sequence": "ENEIERPEDMRVRTLANKSKMKVSIVQQIDRKVALDDIAVSHGLDFPELLSEVETIVYSGTRINIDYFINEVMDEDHLEDIFEYFKESTTDSLEEAMQELGKDYSEEEIRLVRIKFLSEMAN", "protein production": "not failed"}, {"sequence": "EPAEIKIIREAYKKAFLFVNKGLNTDELGQKEEAKNYYKQGIGHLLRGISISSKESEHTGPGWESARQMQQKMKETLQNVRTRLEILEKGLATSLQNDLQEVP", "protein production": "not failed"}, {"sequence": "EPPKLVNDKPHKFKDHFFKKPKFCDVCARMIVLNNKFGLRCKNCKTNIHEHCQSYVEMQRC", "protein production": "not failed"}, {"sequence": "EQMTRDEIEYMLSKSEATLDAEEIEMLQGVFSLDEMMAREVMVPRTDAFMIDINDDPLENIQEILKQSFSRIPVYDVDKDKIIGLIHTKRLLESGFRQGFDQINMRKMLQEPLFVPETIFVDDLLRQLRNTQNQMAILLDEYGGVAGLVTLEDLLEEIVGEID", "protein production": "failed"}, {"sequence": "EQVFQGKLTTVGNPKGNVTLVEFFDYQCIHCKKMASTIENLVKKDSGLRVIYKEFPIFGKTSDLASRVALAAGMQGKYQAMHNALITIDKRLDEKTVMDAAKSIGLDMQKLKKDMDSQEVTDILDANRQLAEKLHLMGTPAFIIGSTPDGQYKKGSEISFIPGATSEQSLRELIKKAAGN", "protein production": "failed"}, {"sequence": "ERLRGVSVEAPTRTGERWNALMDQIVEGVLAWHRIDSHGCVGNVDSTQENDWFSWYQQRVEVLWATLSNMNSPLMTLEDRAVLYRARAALNSLFAGFDDSSVLVHGNLTLRSMLKDPRSDQLLAMLNPGPMLWAPREYDLFRLSEEGMPSQLFYRYLSKAPVSESFVARRWLYTLWELVSRFIHTGNLDRTLFDNAAQQLLPWLE", "protein production": "failed"}]}]}
